From patent US20170202939A1, “PERSONALIZED CANCER VACCINES AND METHODS THEREFOR” (Washington University, priority 2014, published 2017)

Biological target: T1, soluble HLA-A*02:01 from TMC expressing A375 melanoma cells (Homo sapiens, UniProt P04439, D140Y/D185E/D98H/E176V/E277Q/G131W/G231S/I119V/I121R/I166T/I218V/L300P/L318F/N151K/N90K/P208A/P217A/Q86G/Q94H/R138H/R169H/T345S)
T1 construct: TMC expressing A375 melanoma cells were transfected with soluble HLA-A*02:01(sHLA-A*02:01); expressed in transfected cells; host or cells: A375 melanoma cells expressing the MEL218 AAS tandem mini-gene construct
Assay: proteomic analysis (RP-HPLC, LC/MS) of peptides eluted from soluble HLA-A*02:01
Conditions: A375 melanoma cells expressing MEL218 TMC
Experimental: To validate neoantigen processing and presentation, proteomic analysis was performed on peptides eluted from soluble HLA-A*02:01 molecules isolated from melanoma cells expressing a TMC encoding AAS candidates from patient MEL218 tumor (Sercarz, E. E., et al., Annu. Rev. Imunol., 11, 729-766, 1993; Assarsson, E., et al., J. Immunol., 178, 7890-7901, 2007). TMC expressing A375 melanoma cells were transfected with soluble HLA-A*02:01(sHLA-A*02:01) and single cell sorted for a high (>1000 ng/ml in static culture) sHLAA*02:01 producing clone. The sHLA-A*02:01 construct includes a C-terminal VLDLr epitope purification tag ([…] ID NO. 32) that is recognized by the anti-VLDLr mAb (ATCC CRL-2197). This antibody was also used for quantification of sHLA production as the capture antibody in a sandwich ELISA, with an antibody directed against β2-microglobulin (Dako Cytomation) as the detector antibody. Cells were grown in roller bottles and sHLA/peptide complexes were purified from supernatants by affinity chromatography with the anti-VLDLr antibody (Kaabinejadian, S., et al., P.L.o.S. One, 8, e66298, 2013). Eluate fractions containing sHLA/peptide complexes were brought to a final acetic acid concentration of 10%, pooled, and heated to 78° C. in a water bath. Peptides were purified through a 3 kDa molecular weight cutoff cellulose membrane (EMD Millipore) and lyophilized.
Synthetic peptides corresponding to the mutant sequences were resuspended in 10% acetic acid in water at 1 μM, and fractionated by RP-HPLC with an acetonitrile gradient in 10 mM ammonium formate at pH 10. Peptide-containing fractions were dried and resuspended in 25 ul of 10% acetic acid and subjected to nanoscale RP-HPLC at pH 2.5 utilizing an Eksigent nanoLC coupled to a TripleTOF 5600 (AB Sciex) quadrupole time-of-flight mass spectrometer (LC/MS). Information dependent acquisition (IDA) was used to obtain MS and MS/MS fragment spectra for peptide ions. The sequence of each peptide was determined by observed mass and fragment ions, and the 1st dimension fraction number and LC/MS retention times were recorded.
Next, peptides purified from TMC expressing A375 melanoma cells were resuspended in 10% acetic acid and HPLC fractionated under the same conditions and gradient method. Reverse phase HPLC was used to reduce the complexity and determine the elution profile of the pool of soluble HLA-A*02:01 restricted peptides presented by melanoma cells, as well as, the synthetic AAS peptide mixture. FIGS. 40A and 40E illustrate RP-HPLC fractionation of HLA-A*02:01 peptides eluted from the AAS-TMC expressing melanoma cell line (solid trace) and the synthetic peptide mixture containing MEL218 neoantigen candidates (dashed trace), with fraction 50 (FIG. 40A) and fraction 44 (FIG. 40E) indicated. […]

YLEPGPVTA [G280, reference compound]
HLA-A*02:01 presentation by LC/MS of eluted peptides: processed and presented in the context of HLA-A*02:01 molecules
